# Experimental data reported in the MegaScale stability set (Tsuboyama et al. 2023).
# B1: 2M8U (parent)
# chain: TKAQVIEAFKVFDRDGNGYVTVDYLRKVLNELGDMMPADEIEEMIYEADPQNSGYVQYETFVGMLFL
# Variants of: B1
# Test: folding stability dG (cDNA display proteolysis); higher = more stable
# Settings: PBS, room temperature
row,Variant,folding stability dG
1,TKAQVIYAFKVFDRDGNGYVTVDYLRKVLNELGDMMPADEIEEMIYEADPQNSGYVQYETFVGMLFL [E7Y],2.7 kcal/mol
2,TKAQVIECFKVFDRDGNGYVTVDYLRKVLNELGDMMPADEIEEMIYEADPQNSGYVQYETFVGMLFL [A8C],3.46 kcal/mol
3,TKAQVIEDFKVFDRDGNGYVTVDYLRKVLNELGDMMPADEIEEMIYEADPQNSGYVQYETFVGMLFL [A8D],2.49 kcal/mol
4,TKAQVIEEFKVFDRDGNGYVTVDYLRKVLNELGDMMPADEIEEMIYEADPQNSGYVQYETFVGMLFL [A8E],2.59 kcal/mol
5,TKAQVIEFFKVFDRDGNGYVTVDYLRKVLNELGDMMPADEIEEMIYEADPQNSGYVQYETFVGMLFL [A8F],3.23 kcal/mol
6,TKAQVIEGFKVFDRDGNGYVTVDYLRKVLNELGDMMPADEIEEMIYEADPQNSGYVQYETFVGMLFL [A8G],2.64 kcal/mol
7,TKAQVIEHFKVFDRDGNGYVTVDYLRKVLNELGDMMPADEIEEMIYEADPQNSGYVQYETFVGMLFL [A8H],3.02 kcal/mol
8,TKAQVIEIFKVFDRDGNGYVTVDYLRKVLNELGDMMPADEIEEMIYEADPQNSGYVQYETFVGMLFL [A8I],3.5 kcal/mol
9,TKAQVIEKFKVFDRDGNGYVTVDYLRKVLNELGDMMPADEIEEMIYEADPQNSGYVQYETFVGMLFL [A8K],3.62 kcal/mol
10,TKAQVIELFKVFDRDGNGYVTVDYLRKVLNELGDMMPADEIEEMIYEADPQNSGYVQYETFVGMLFL [A8L],3.56 kcal/mol
11,TKAQVIEMFKVFDRDGNGYVTVDYLRKVLNELGDMMPADEIEEMIYEADPQNSGYVQYETFVGMLFL [A8M],3.76 kcal/mol
12,TKAQVIENFKVFDRDGNGYVTVDYLRKVLNELGDMMPADEIEEMIYEADPQNSGYVQYETFVGMLFL [A8N],2.81 kcal/mol
13,TKAQVIEPFKVFDRDGNGYVTVDYLRKVLNELGDMMPADEIEEMIYEADPQNSGYVQYETFVGMLFL [A8P],2.02 kcal/mol
14,TKAQVIEQFKVFDRDGNGYVTVDYLRKVLNELGDMMPADEIEEMIYEADPQNSGYVQYETFVGMLFL [A8Q],3.3 kcal/mol
15,TKAQVIERFKVFDRDGNGYVTVDYLRKVLNELGDMMPADEIEEMIYEADPQNSGYVQYETFVGMLFL [A8R],3.6 kcal/mol
16,TKAQVIESFKVFDRDGNGYVTVDYLRKVLNELGDMMPADEIEEMIYEADPQNSGYVQYETFVGMLFL [A8S],3.11 kcal/mol
17,TKAQVIETFKVFDRDGNGYVTVDYLRKVLNELGDMMPADEIEEMIYEADPQNSGYVQYETFVGMLFL [A8T],2.67 kcal/mol
18,TKAQVIEVFKVFDRDGNGYVTVDYLRKVLNELGDMMPADEIEEMIYEADPQNSGYVQYETFVGMLFL [A8V],2.84 kcal/mol
19,TKAQVIEWFKVFDRDGNGYVTVDYLRKVLNELGDMMPADEIEEMIYEADPQNSGYVQYETFVGMLFL [A8W],3.56 kcal/mol
20,TKAQVIEYFKVFDRDGNGYVTVDYLRKVLNELGDMMPADEIEEMIYEADPQNSGYVQYETFVGMLFL [A8Y],3.17 kcal/mol
21,TKAQVIEAAKVFDRDGNGYVTVDYLRKVLNELGDMMPADEIEEMIYEADPQNSGYVQYETFVGMLFL [F9A],2.63 kcal/mol
22,TKAQVIEACKVFDRDGNGYVTVDYLRKVLNELGDMMPADEIEEMIYEADPQNSGYVQYETFVGMLFL [F9C],3.12 kcal/mol
23,TKAQVIEADKVFDRDGNGYVTVDYLRKVLNELGDMMPADEIEEMIYEADPQNSGYVQYETFVGMLFL [F9D],1.85 kcal/mol
24,TKAQVIEAEKVFDRDGNGYVTVDYLRKVLNELGDMMPADEIEEMIYEADPQNSGYVQYETFVGMLFL [F9E],1.96 kcal/mol
25,TKAQVIEAGKVFDRDGNGYVTVDYLRKVLNELGDMMPADEIEEMIYEADPQNSGYVQYETFVGMLFL [F9G],2.1 kcal/mol
26,TKAQVIEAHKVFDRDGNGYVTVDYLRKVLNELGDMMPADEIEEMIYEADPQNSGYVQYETFVGMLFL [F9H],2.14 kcal/mol
27,TKAQVIEAIKVFDRDGNGYVTVDYLRKVLNELGDMMPADEIEEMIYEADPQNSGYVQYETFVGMLFL [F9I],4.09 kcal/mol

row,Variant,folding stability dG
1,TKAQVIEAKKVFDRDGNGYVTVDYLRKVLNELGDMMPADEIEEMIYEADPQNSGYVQYETFVGMLFL [F9K],2.18 kcal/mol
2,TKAQVIEALKVFDRDGNGYVTVDYLRKVLNELGDMMPADEIEEMIYEADPQNSGYVQYETFVGMLFL [F9L],4.1 kcal/mol
3,TKAQVIEAMKVFDRDGNGYVTVDYLRKVLNELGDMMPADEIEEMIYEADPQNSGYVQYETFVGMLFL [F9M],3.82 kcal/mol
4,TKAQVIEANKVFDRDGNGYVTVDYLRKVLNELGDMMPADEIEEMIYEADPQNSGYVQYETFVGMLFL [F9N],2.22 kcal/mol
5,TKAQVIEAPKVFDRDGNGYVTVDYLRKVLNELGDMMPADEIEEMIYEADPQNSGYVQYETFVGMLFL [F9P],2.32 kcal/mol
6,TKAQVIEAQKVFDRDGNGYVTVDYLRKVLNELGDMMPADEIEEMIYEADPQNSGYVQYETFVGMLFL [F9Q],2.08 kcal/mol
7,TKAQVIEARKVFDRDGNGYVTVDYLRKVLNELGDMMPADEIEEMIYEADPQNSGYVQYETFVGMLFL [F9R],1.98 kcal/mol
8,TKAQVIEASKVFDRDGNGYVTVDYLRKVLNELGDMMPADEIEEMIYEADPQNSGYVQYETFVGMLFL [F9S],2.13 kcal/mol
9,TKAQVIEATKVFDRDGNGYVTVDYLRKVLNELGDMMPADEIEEMIYEADPQNSGYVQYETFVGMLFL [F9T],2.47 kcal/mol
10,TKAQVIEAVKVFDRDGNGYVTVDYLRKVLNELGDMMPADEIEEMIYEADPQNSGYVQYETFVGMLFL [F9V],3.27 kcal/mol
11,TKAQVIEAWKVFDRDGNGYVTVDYLRKVLNELGDMMPADEIEEMIYEADPQNSGYVQYETFVGMLFL [F9W],1.95 kcal/mol
12,TKAQVIEAYKVFDRDGNGYVTVDYLRKVLNELGDMMPADEIEEMIYEADPQNSGYVQYETFVGMLFL [F9Y],2.1 kcal/mol
13,TKAQVIEAFAVFDRDGNGYVTVDYLRKVLNELGDMMPADEIEEMIYEADPQNSGYVQYETFVGMLFL [K10A],3.13 kcal/mol
14,TKAQVIEAFCVFDRDGNGYVTVDYLRKVLNELGDMMPADEIEEMIYEADPQNSGYVQYETFVGMLFL [K10C],3.51 kcal/mol
15,TKAQVIEAFDVFDRDGNGYVTVDYLRKVLNELGDMMPADEIEEMIYEADPQNSGYVQYETFVGMLFL [K10D],2.26 kcal/mol
16,TKAQVIEAFEVFDRDGNGYVTVDYLRKVLNELGDMMPADEIEEMIYEADPQNSGYVQYETFVGMLFL [K10E],3.02 kcal/mol
17,TKAQVIEAFFVFDRDGNGYVTVDYLRKVLNELGDMMPADEIEEMIYEADPQNSGYVQYETFVGMLFL [K10F],3.21 kcal/mol
18,TKAQVIEAFGVFDRDGNGYVTVDYLRKVLNELGDMMPADEIEEMIYEADPQNSGYVQYETFVGMLFL [K10G],2.97 kcal/mol
19,TKAQVIEAFHVFDRDGNGYVTVDYLRKVLNELGDMMPADEIEEMIYEADPQNSGYVQYETFVGMLFL [K10H],2.88 kcal/mol
20,TKAQVIEAFIVFDRDGNGYVTVDYLRKVLNELGDMMPADEIEEMIYEADPQNSGYVQYETFVGMLFL [K10I],3.32 kcal/mol
21,TKAQVIEAFLVFDRDGNGYVTVDYLRKVLNELGDMMPADEIEEMIYEADPQNSGYVQYETFVGMLFL [K10L],3.25 kcal/mol
22,TKAQVIEAFMVFDRDGNGYVTVDYLRKVLNELGDMMPADEIEEMIYEADPQNSGYVQYETFVGMLFL [K10M],3.15 kcal/mol
23,TKAQVIEAFNVFDRDGNGYVTVDYLRKVLNELGDMMPADEIEEMIYEADPQNSGYVQYETFVGMLFL [K10N],2.74 kcal/mol
24,TKAQVIEAFPVFDRDGNGYVTVDYLRKVLNELGDMMPADEIEEMIYEADPQNSGYVQYETFVGMLFL [K10P],2.08 kcal/mol
25,TKAQVIEAFQVFDRDGNGYVTVDYLRKVLNELGDMMPADEIEEMIYEADPQNSGYVQYETFVGMLFL [K10Q],3.16 kcal/mol
26,TKAQVIEAFRVFDRDGNGYVTVDYLRKVLNELGDMMPADEIEEMIYEADPQNSGYVQYETFVGMLFL [K10R],3.46 kcal/mol
27,TKAQVIEAFSVFDRDGNGYVTVDYLRKVLNELGDMMPADEIEEMIYEADPQNSGYVQYETFVGMLFL [K10S],2.86 kcal/mol

row,Variant,folding stability dG
1,TKAQVIEAFTVFDRDGNGYVTVDYLRKVLNELGDMMPADEIEEMIYEADPQNSGYVQYETFVGMLFL [K10T],2.77 kcal/mol
2,TKAQVIEAFVVFDRDGNGYVTVDYLRKVLNELGDMMPADEIEEMIYEADPQNSGYVQYETFVGMLFL [K10V],3.17 kcal/mol
3,TKAQVIEAFWVFDRDGNGYVTVDYLRKVLNELGDMMPADEIEEMIYEADPQNSGYVQYETFVGMLFL [K10W],3.01 kcal/mol
4,TKAQVIEAFYVFDRDGNGYVTVDYLRKVLNELGDMMPADEIEEMIYEADPQNSGYVQYETFVGMLFL [K10Y],2.79 kcal/mol
5,TKAQVIEAFKAFDRDGNGYVTVDYLRKVLNELGDMMPADEIEEMIYEADPQNSGYVQYETFVGMLFL [V11A],3.77 kcal/mol
6,TKAQVIEAFKCFDRDGNGYVTVDYLRKVLNELGDMMPADEIEEMIYEADPQNSGYVQYETFVGMLFL [V11C],3.39 kcal/mol
7,TKAQVIEAFKDFDRDGNGYVTVDYLRKVLNELGDMMPADEIEEMIYEADPQNSGYVQYETFVGMLFL [V11D],3.13 kcal/mol
8,TKAQVIEAFKEFDRDGNGYVTVDYLRKVLNELGDMMPADEIEEMIYEADPQNSGYVQYETFVGMLFL [V11E],3.52 kcal/mol
9,TKAQVIEAFKFFDRDGNGYVTVDYLRKVLNELGDMMPADEIEEMIYEADPQNSGYVQYETFVGMLFL [V11F],3.01 kcal/mol
10,TKAQVIEAFKGFDRDGNGYVTVDYLRKVLNELGDMMPADEIEEMIYEADPQNSGYVQYETFVGMLFL [V11G],3.28 kcal/mol
11,TKAQVIEAFKHFDRDGNGYVTVDYLRKVLNELGDMMPADEIEEMIYEADPQNSGYVQYETFVGMLFL [V11H],3.32 kcal/mol
12,TKAQVIEAFKIFDRDGNGYVTVDYLRKVLNELGDMMPADEIEEMIYEADPQNSGYVQYETFVGMLFL [V11I],3.38 kcal/mol
13,TKAQVIEAFKKFDRDGNGYVTVDYLRKVLNELGDMMPADEIEEMIYEADPQNSGYVQYETFVGMLFL [V11K],3.72 kcal/mol
14,TKAQVIEAFKLFDRDGNGYVTVDYLRKVLNELGDMMPADEIEEMIYEADPQNSGYVQYETFVGMLFL [V11L],3.44 kcal/mol
15,TKAQVIEAFKMFDRDGNGYVTVDYLRKVLNELGDMMPADEIEEMIYEADPQNSGYVQYETFVGMLFL [V11M],3.24 kcal/mol
16,TKAQVIEAFKNFDRDGNGYVTVDYLRKVLNELGDMMPADEIEEMIYEADPQNSGYVQYETFVGMLFL [V11N],3.51 kcal/mol
17,TKAQVIEAFKPFDRDGNGYVTVDYLRKVLNELGDMMPADEIEEMIYEADPQNSGYVQYETFVGMLFL [V11P],3.14 kcal/mol
18,TKAQVIEAFKQFDRDGNGYVTVDYLRKVLNELGDMMPADEIEEMIYEADPQNSGYVQYETFVGMLFL [V11Q],3.65 kcal/mol
19,TKAQVIEAFKRFDRDGNGYVTVDYLRKVLNELGDMMPADEIEEMIYEADPQNSGYVQYETFVGMLFL [V11R],3.63 kcal/mol
20,TKAQVIEAFKSFDRDGNGYVTVDYLRKVLNELGDMMPADEIEEMIYEADPQNSGYVQYETFVGMLFL [V11S],3.56 kcal/mol
21,TKAQVIEAFKTFDRDGNGYVTVDYLRKVLNELGDMMPADEIEEMIYEADPQNSGYVQYETFVGMLFL [V11T],3.35 kcal/mol
22,TKAQVIEAFKWFDRDGNGYVTVDYLRKVLNELGDMMPADEIEEMIYEADPQNSGYVQYETFVGMLFL [V11W],3.05 kcal/mol
23,TKAQVIEAFKYFDRDGNGYVTVDYLRKVLNELGDMMPADEIEEMIYEADPQNSGYVQYETFVGMLFL [V11Y],3.07 kcal/mol
24,TKAQVIEAFKVADRDGNGYVTVDYLRKVLNELGDMMPADEIEEMIYEADPQNSGYVQYETFVGMLFL [F12A],3.36 kcal/mol
25,TKAQVIEAFKVCDRDGNGYVTVDYLRKVLNELGDMMPADEIEEMIYEADPQNSGYVQYETFVGMLFL [F12C],3.15 kcal/mol
26,TKAQVIEAFKVDDRDGNGYVTVDYLRKVLNELGDMMPADEIEEMIYEADPQNSGYVQYETFVGMLFL [F12D],2.69 kcal/mol
